Source: US20220088118A1 (Bicycle, published 2022)
Numbered stars: 1 amine (or outer) side, 2 acyl side, 3 side chain; on linkers, the order of the positions; unused ones are H or OH. Bridge positions count the residues as written; N and C are the ends. Ends that are not written are not given here. TATA = O=C(CC[*:1])N1CN(C(=O)CC[*:2])CN(C(=O)CC[*:3])C1

Target: T1, human carbonic anhydrase IX (human, UniProt Q16790 38-414)
Assay: cell-based or functional assay

Row | Enzyme IC50 | Binder
1 | 1330 nM | ACSSECIWVDGWVCA (linker 2-6-14 via TATA) [61-30-01-N001]
2 | 939 nM | ACGDCIWVDGWVCA (linker 2-5-13 via TATA) [61-25-01-N001]

Target: T1, human carbonic anhydrase IX
Assay: competition fluorescence polarisation, fluorescent ligand (SEQ ID NO: 18)-Sar6-K(FI)

Row | Binder | Ki
3 | ACGACTWADGWVCA (linker 2-5-13 via TATA) [61-25-00-N001] | 2280 nM
4 | ACGRCTWVDGWICA (linker 2-5-13 via TATA) [61-27-00-N001] | 1610 nM
5 | ACGDCIWVDGWVCA (linker 2-5-13 via TATA) [61-25-01-N001] | 26.5 nM
6 | ACTETCIWVDGWVCA (linker 2-6-14 via TATA) [61-30-02-N001] | 193 nM
7 | ACLSHCLWVDGWVCA (linker 2-6-14 via TATA) [61-31-00-N001] | 326 nM
8 | ACTDCIWVDGWMCA (linker 2-5-13 via TATA) [61-28-00-N001] | 442 nM

Next, values leading:

Row | Ki | Binder
9 | 70.5 nM | ACVDCVWVDGWVCA (linker 2-5-13 via TATA) [61-25-03-N001]
10 | 129 nM | ACVECWADGWVNCA (linker 2-5-13 via TATA) [61-29-00-N001]
11 | 99.5 nM | ACSSECIWVDGWVCA (linker 2-6-14 via TATA) [61-30-01-N001]
12 | 51 nM | ACGLCIWVDGWVCA (linker 2-5-13 via TATA) [61-26-00-N001]
13 | 30 nM | ACRDCIWVDGWVCA (linker 2-5-13 via TATA) [61-25-02-N001]
14 | 103 nM | ACHAHCLWVDGWVCA (linker 2-6-14 via TATA) [61-30-00-N001]
15 | 158 nM | ACANNCIWVDGWVCA (linker 2-6-14 via TATA) [61-30-03-N001]
